# In publication doi:10.1101/2024.10.21.619419 (bioRxiv, 2024):
# B1: Bxb1 residues 2-500 (enzyme, Mycobacteriophage Bxb1, UniProt Q9B086 2-500, looked up)
# chain: RALVVIRLSRVTDATTSPERQLESCQQLCAQRGWDVVGVAEDLDVSGAVDPFDRKRRPNLARWLAFEEQPFDVIVAYRVDRLTRSIRHLQQLVHWAEDHKKLVVSATEAHFDTTTPFAAVVIALMGTVAQMELEAIKERNRSAAHFNIRAGKYRGSLPPWGYLPTRVDGEWRLVPDPVQRERILEVYHRVVDNHEPLHLVAHDLNRRGVLSPKDYFAQLQGREPQGREWSATALKRSMISEAMLGYATLNGKTVRDDDGAPLVRAEPILTREQLEALRAELVKTSRAKPAVSTPSLLLRVLFCAVCGEPAYKFAGGGRKHPRYRCRSMGFPKHCGNGTVAMAEWDAFCEEQVLDLLGDAERLEKVWVAGSDSAVELAEVNAELVDLTSLIGSPAYRAGSPQREALDARIAALAARQEELEGLEARPSGWEWRETGQRFGDWWREQDTAAKNTWLRSMNVRLTFDVRGGLTRTIDFGDLQEYEQHLRLGSVVERLHTGMS
# Target: the molecule itself
# Assay: SEC
protein,measurement,value
B1,stoichiometry N,2
